# Patent publication US20060063715A1
# Molecular target: TAG-72 antigen (tumor-associated glycoprotein 72) (human)
# Assay: competition RIA against 125I-labeled CC49 IgG (competitor), TAG-72 in a human breast carcinoma extract
substance,measurement,value
CC49/212 single-chain antigen-binding protein (monomer) (scFv),fold higher protein concentration needed to displace the labeled CC49 IgG (against unlabeled CC49 IgG and bivalent CC49/212),10 fold
